Measured values published in article PMC8484351, “Preclinical development of a bispecific TNFα/IL-23 neutralising domain antibody as a novel oral treatment for inflammatory bowel disease” (Scientific Reports, 2021).

T1: Recombinant cynomolgus monkey IL-23 (cynomolgus monkey)
T1 construct: IL-23p19 subunit of cynomolgus monkey IL-23; IL-12p40 subunit of cynomolgus monkey IL-23; also called cIL-23; IL-23 from cynomolgus monkey; source: bought: Fusion Antibodies (custom preparation)
T1 chain 1: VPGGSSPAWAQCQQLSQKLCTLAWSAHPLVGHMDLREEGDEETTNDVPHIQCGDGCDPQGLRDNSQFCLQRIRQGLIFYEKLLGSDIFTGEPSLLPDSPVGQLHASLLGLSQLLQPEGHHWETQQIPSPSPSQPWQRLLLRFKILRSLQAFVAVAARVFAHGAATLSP
T1 chain 2: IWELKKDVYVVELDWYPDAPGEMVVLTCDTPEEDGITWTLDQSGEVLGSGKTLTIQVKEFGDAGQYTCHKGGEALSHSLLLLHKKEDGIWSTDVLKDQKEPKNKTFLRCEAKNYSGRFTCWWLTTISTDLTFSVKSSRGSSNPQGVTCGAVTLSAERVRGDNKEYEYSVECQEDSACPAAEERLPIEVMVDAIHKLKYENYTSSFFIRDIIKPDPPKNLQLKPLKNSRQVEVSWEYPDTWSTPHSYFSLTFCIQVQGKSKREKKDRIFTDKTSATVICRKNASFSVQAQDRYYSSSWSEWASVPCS

T2: Recombinant Human IL-23 (human, UniProt Q9NPF7 20-189; P29460 23-328)
T2 construct: IL-23p19 subunit of human IL-23; IL-12p40 subunit, shared with IL-12; Heterodimer of p19 and p40; also called interleukin-23; source: bought: Sino Biologicals
T2 sequence (looked up) 1: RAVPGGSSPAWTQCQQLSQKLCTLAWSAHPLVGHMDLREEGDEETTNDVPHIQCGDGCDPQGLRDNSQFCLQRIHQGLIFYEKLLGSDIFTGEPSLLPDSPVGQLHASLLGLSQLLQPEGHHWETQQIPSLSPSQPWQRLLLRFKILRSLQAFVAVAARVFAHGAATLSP
T2 sequence (looked up) 2: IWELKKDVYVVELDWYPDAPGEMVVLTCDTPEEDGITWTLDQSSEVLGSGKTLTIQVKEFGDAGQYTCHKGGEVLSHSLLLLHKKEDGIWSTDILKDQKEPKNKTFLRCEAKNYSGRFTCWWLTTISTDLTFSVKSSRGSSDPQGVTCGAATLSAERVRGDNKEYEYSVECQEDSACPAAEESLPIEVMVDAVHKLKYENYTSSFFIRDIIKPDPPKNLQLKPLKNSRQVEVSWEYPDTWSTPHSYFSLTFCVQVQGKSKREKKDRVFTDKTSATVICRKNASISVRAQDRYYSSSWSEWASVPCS


How the values were obtained:
Recombinant Human IL-23 [1] = biological target: T3, Recombinant Human IL-23 (human, UniProt Q9NPF7;P29460); assay: cell-based or functional assay
Recombinant Human IL-23 [2] = biological target: T3, Recombinant Human IL-23; assay: ELISA; human IL-23/IL-23R receptor/ligand inhibition ELISA; block buffer 1% BSA in PBS pH 7.4 with 4% Marvel milk; 0.1 mM PMSF added for trypsin-treated V56B2; protocol in the Supplementary Methods; conditions: both partners purified
Recombinant Human IL-23 [3] = biological target: T3, Recombinant Human IL-23; assay: SPR; Biacore; anti-p40 monoclonal antibody coupled to a CM5 chip and loaded with recombinant human IL-23 at 2 or 0.5 ug/mL; V900 at 0.02, 0.08, 0.3, 1.25 and 5 nM, 300 s on and 300 s off, 30 uL/min; conditions: both partners purified
[4] = biological target: T1, Recombinant cynomolgus monkey IL-23; assay: ELISA; cynomolgus monkey IL-23/IL-23R receptor/ligand inhibition ELISA; protocol in the Supplementary Methods; conditions: both partners purified
Recombinant Human IL-23 [5] = biological target: T2, Recombinant Human IL-23; assay: ELISA; human IL-23/IL-23R receptor/ligand inhibition ELISA; block buffer 1% BSA in PBS pH 7.4 with 4% Marvel milk; 0.1 mM PMSF added for trypsin-treated V56B2; protocol in the Supplementary Methods; conditions: both partners purified

Binder | IC50 of inhibition of IL-17 production from murine splenocytes co-stimulated with murine IL-2 and human IL-23 (cellular potency in mouse splenocytes) (Recombinant Human IL-23 [1]) | IC50 (Recombinant Human IL-23 [2]) | Kd (Recombinant Human IL-23 [3]) | IC50 [4] | binding result (Recombinant Human IL-23 [5])
Vorabody V900, anti-IL-23 p19-specific single domain antibody (VHH, 121 amino acids, 13.2 kDa; also called anti-IL-23 (V900); source: S. cerevisiae or Pichia pastoris shake flask cultures, purified (CaptoS ion exchange chromatography)) VHH: DVQLVESGGGQVQPGGSLSLSCESSVSIWSFKVMGWFRQVPGKQRELVATITTGGSPDYSDSVKGRFTISRDYDKRTLYLQMNSLKPEDTAVYYCAGRLWAHITSSGHDVWGQGTQVTVSS | 10700 pM | 200 pM | 32 pM | 700 pM | –
single domain antibody 12G1, unoptimised anti-IL-23 domain antibody (VHH, llama-derived, isolated by phage display after immunisation with human IL-23; Parent of V900; also called clone 12G1; not shown: His6, C-terminal, kept; FLAG, C-terminal, kept) VHH: EVQLVESGGGLVQPGGSLRLSCAASVSIWSFKVMGWYRQVPGKQRELVATITTGGSPDYADSVKGRFTMSRDYDKRTVFLEMDSVKPEDAAVYYCNGRLWAHLTSSGHDVWGQGTRVTVSS | 9300 pM | 200 pM | – | – | –
Recombinant Human IL-23R-FC (Fc fusion, UniProt Q5VWK5 24-355, looked up, source: bought: R&D systems) GITNINCSGHIWVEPATIFKMGMNISIYCQAAIKNCQPRKLHFYKNGIKERFQITRINKTTARLWYKNFLEPHASMYCTAECPKHFQETLICGKDISSGYPPDIPDEVTCVIYEYSGNMTCTWNAGKLTYIDTKYVVHVKSLETEEEQQYLTSSYINISTDSLQGGKKYLVWVQAANALGMEESKQLQIHLDDIVIPSAAVISRAETINATVPKTIIYWDSQTTIEKVSCEMRYKATTNQTWNVKEFDTNFTYVQQSEFYLEPNIKYVFQVRCQETGKRYWQPWSSLFFHKTPETVPQVTSKAFQHDTWNSGLTVASISTGHLTSDNRGDIG | – | – | – | – | binds
